Test results as given in patent US20220332795A1 (ARO BIOTHERAPEUTICS, published 2022).
Substitutions are numbered along the chain they refer to. Blank lines part the entries; values can stand above or below the binder they belong to.

Tests used:
[1] = target: T1, human CD71 extracellular domain (human, UniProt P02786 89-760, biotinylated); assay: solution ELISA screen, signal ratio to HSA control
T1 construct: extracellular domain; also called hCD71; huCD71 ECD

[2] = target: T2, CD71 apical domain (human, UniProt P02786 189-383, limits assumed); assay: solution ELISA screen, signal ratio to HSA control
T2 construct: domain: apical domain
T2 sequence (P02786 189-383 limits assumed): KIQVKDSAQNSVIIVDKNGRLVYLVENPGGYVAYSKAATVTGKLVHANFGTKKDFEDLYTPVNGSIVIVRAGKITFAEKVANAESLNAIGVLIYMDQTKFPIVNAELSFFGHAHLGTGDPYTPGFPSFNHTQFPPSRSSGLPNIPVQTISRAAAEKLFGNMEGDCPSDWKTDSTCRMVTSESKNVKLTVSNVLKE

[3] = target: T1, human CD71 extracellular domain; assay: solution ELISA screen (luminescence)
[4] = target: T2, CD71 apical domain; assay: solution ELISA screen (luminescence)

T1 sequence (P02786 other isoform, or with tags, fused parts or gaps): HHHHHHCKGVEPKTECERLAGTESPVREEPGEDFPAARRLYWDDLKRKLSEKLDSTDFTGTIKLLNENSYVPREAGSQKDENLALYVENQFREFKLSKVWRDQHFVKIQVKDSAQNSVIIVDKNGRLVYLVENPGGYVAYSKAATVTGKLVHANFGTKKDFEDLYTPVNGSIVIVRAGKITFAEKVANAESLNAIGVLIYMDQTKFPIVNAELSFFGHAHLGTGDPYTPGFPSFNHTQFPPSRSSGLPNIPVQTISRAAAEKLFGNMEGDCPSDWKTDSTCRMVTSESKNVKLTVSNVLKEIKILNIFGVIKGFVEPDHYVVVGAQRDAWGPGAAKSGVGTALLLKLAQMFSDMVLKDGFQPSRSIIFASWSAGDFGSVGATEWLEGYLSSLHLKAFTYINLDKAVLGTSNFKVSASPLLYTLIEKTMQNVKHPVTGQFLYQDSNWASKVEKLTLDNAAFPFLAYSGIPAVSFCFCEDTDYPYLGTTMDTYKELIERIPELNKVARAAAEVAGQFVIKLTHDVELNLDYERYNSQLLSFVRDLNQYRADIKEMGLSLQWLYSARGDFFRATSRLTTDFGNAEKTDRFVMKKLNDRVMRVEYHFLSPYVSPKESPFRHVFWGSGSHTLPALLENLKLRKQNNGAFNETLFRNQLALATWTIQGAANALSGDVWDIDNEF

B2: SEQ ID NO 248 (designed binder, not shown: small tags and cut ends)
chain: MLPAPKNLVVSRVTEDSARLSWTAPDAAFDSFYIAYAEPRPDGEAIWLGVPGSERSYDLTGLKPGTEYSVLIHGVKGGLLSSPLHATFTT
hCD71:HSA [1]: 22.2 ratio
apical domain:HSA [2]: 160 ratio
RLU [3]: 756000 RLU
RLU [4]: 5.45e+06 RLU

B3: SEQ ID NO 236 (designed binder, not shown: small tags and cut ends)
chain: B2 chain with W47L, G49Q, H85D, T87E
hCD71:HSA [1]: 262 ratio
apical domain:HSA [2]: 477 ratio
RLU [3]: 4.07e+06 RLU
RLU [4]: 7.41e+06 RLU

B13: SEQ ID NO 263 (designed binder, not shown: small tags and cut ends)
chain: B2 chain with W47A, G49V, H85A, T87N
hCD71:HSA [1]: 24.5 ratio
apical domain:HSA [2]: 184 ratio
RLU [3]: 584000 RLU
RLU [4]: 4.37e+06 RLU

B17: SEQ ID NO 244 (designed binder, not shown: small tags and cut ends)
chain: B2 chain with W47S, G49Q, H85G, T87H
hCD71:HSA [1]: 97.1 ratio
apical domain:HSA [2]: 329 ratio
RLU [3]: 1.75e+06 RLU
RLU [4]: 5.93e+06 RLU

B18: SEQ ID NO 247 (designed binder, not shown: small tags and cut ends)
chain: B2 chain with W47L, G49H, H85R, T87S
hCD71:HSA [1]: 226 ratio
apical domain:HSA [2]: 394 ratio
RLU [3]: 4.3e+06 RLU
RLU [4]: 7.51e+06 RLU

B19: SEQ ID NO 260 (designed binder, not shown: small tags and cut ends)
chain: B2 chain with W47H, G49R, S69N, L71T, H73Q, L79F, L80P, S82M, H85S, T87I
hCD71:HSA [1]: 146 ratio
apical domain:HSA [2]: 211 ratio
RLU [3]: 4.88e+06 RLU
RLU [4]: 7.05e+06 RLU

B20: SEQ ID NO 252 (designed binder, not shown: small tags and cut ends)
chain: B2 chain with W47V, G49H, H85D, T87F
hCD71:HSA [1]: 59.6 ratio
apical domain:HSA [2]: 104 ratio
RLU [3]: 4.34e+06 RLU
RLU [4]: 7.57e+06 RLU

B23: SEQ ID NO 256 (designed binder, not shown: small tags and cut ends)
chain: B2 chain with W47Q, G49T, T87Y
hCD71:HSA [1]: 27.2 ratio
apical domain:HSA [2]: 76.7 ratio
RLU [3]: 2.07e+06 RLU
RLU [4]: 5.84e+06 RLU

B25: SEQ ID NO 258 (designed binder, not shown: small tags and cut ends)
chain: B2 chain with W47L, G49E, H85V, T87F
hCD71:HSA [1]: 204 ratio
apical domain:HSA [2]: 277 ratio
RLU [3]: 5.4e+06 RLU
RLU [4]: 7.34e+06 RLU

B26: SEQ ID NO 250 (designed binder, not shown: small tags and cut ends)
chain: B2 chain with W47L, G49R, H85Y, T87K
hCD71:HSA [1]: 15 ratio
apical domain:HSA [2]: 114 ratio
RLU [3]: 724000 RLU
RLU [4]: 5.54e+06 RLU

B27: SEQ ID NO 249 (designed binder, not shown: small tags and cut ends)
chain: B2 chain with W47V, G49E, T87N
hCD71:HSA [1]: 205 ratio
apical domain:HSA [2]: 308 ratio
RLU [3]: 4.94e+06 RLU
RLU [4]: 7.43e+06 RLU

B28: SEQ ID NO 239 (designed binder, not shown: small tags and cut ends)
chain: B2 chain with W47Q, G49V, H85Y, T87I
hCD71:HSA [1]: 26.5 ratio
apical domain:HSA [2]: 221 ratio
RLU [3]: 559000 RLU
RLU [4]: 4.65e+06 RLU

Next, values leading:

hCD71:HSA [1]: 131 ratio
apical domain:HSA [2]: 238 ratio
RLU [3]: 3.88e+06 RLU
RLU [4]: 7.04e+06 RLU
B1: SEQ ID NO 228 (designed binder, not shown: small tags and cut ends)
chain: B2 chain with W47V, G49R, H85A, T87S

hCD71:HSA [1]: 35.1 ratio
apical domain:HSA [2]: 255 ratio
RLU [3]: 772000 RLU
RLU [4]: 5.61e+06 RLU
B4: SEQ ID NO 233 (designed binder, not shown: small tags and cut ends)
chain: B2 chain with W47Q, G49F, H85K, T87Y

hCD71:HSA [1]: 41.9 ratio
apical domain:HSA [2]: 259 ratio
RLU [3]: 774000 RLU
RLU [4]: 4.77e+06 RLU
B5: SEQ ID NO 245 (designed binder, not shown: small tags and cut ends)
chain: B2 chain with W47A, G49W, H85V, T87S

hCD71:HSA [1]: 128 ratio
apical domain:HSA [2]: 231 ratio
RLU [3]: 3.94e+06 RLU
RLU [4]: 7.13e+06 RLU
B6: SEQ ID NO 262 (designed binder, not shown: small tags and cut ends)
chain: B2 chain with W47V, G49H, H85Q, T87I

hCD71:HSA [1]: 104 ratio
apical domain:HSA [2]: 308 ratio
RLU [3]: 2.24e+06 RLU
RLU [4]: 6.62e+06 RLU
B7: SEQ ID NO 254 (designed binder, not shown: small tags and cut ends)
chain: B2 chain with W47L, G49A, H85S, T87K

hCD71:HSA [1]: 49.7 ratio
apical domain:HSA [2]: 235 ratio
RLU [3]: 1.26e+06 RLU
RLU [4]: 5.96e+06 RLU
B8: SEQ ID NO 259 (designed binder, not shown: small tags and cut ends)
chain: B2 chain with W47Q, H85L, T87V

hCD71:HSA [1]: 165 ratio
apical domain:HSA [2]: 253 ratio
RLU [3]: 4.58e+06 RLU
RLU [4]: 7.01e+06 RLU
B9: SEQ ID NO 237 (designed binder, not shown: small tags and cut ends)
chain: B2 chain with W47V, G49A, H85Y, T87S

hCD71:HSA [1]: 216 ratio
apical domain:HSA [2]: 338 ratio
RLU [3]: 4.51e+06 RLU
RLU [4]: 7.04e+06 RLU
B10: SEQ ID NO 234 (designed binder, not shown: small tags and cut ends)
chain: B2 chain with W47V, G49V, H85S, T87I

hCD71:HSA [1]: 26.9 ratio
apical domain:HSA [2]: 162 ratio
RLU [3]: 802000 RLU
RLU [4]: 4.84e+06 RLU
B11: SEQ ID NO 257 (designed binder, not shown: small tags and cut ends)
chain: B2 chain with W47Q, H85R, T87Y

hCD71:HSA [1]: 93.4 ratio
apical domain:HSA [2]: 374 ratio
RLU [3]: 1.44e+06 RLU
RLU [4]: 5.77e+06 RLU
B12: SEQ ID NO 229 (designed binder, not shown: small tags and cut ends)
chain: B2 chain with W47Q, G49L, H85V, T87H

hCD71:HSA [1]: 13.7 ratio
apical domain:HSA [2]: 0.5 ratio
RLU [3]: 2.39e+06 RLU
RLU [4]: 93200 RLU
B14: SEQ ID NO 261 (designed binder, not shown: small tags and cut ends)
chain: B2 chain with W47L, G49Q, H85I, T87K

hCD71:HSA [1]: 49.1 ratio
apical domain:HSA [2]: 69.3 ratio
RLU [3]: 5.02e+06 RLU
RLU [4]: 7.08e+06 RLU
B15: SEQ ID NO 255 (designed binder, not shown: small tags and cut ends)
chain: MLPAPKNLVVSRVTEDSARLSWTAPDAAFDSFFIGYLEPQPPGEAILLFVPGSERSYDLTGLKPGTEYNVTIQGVKGGFPSTPLSASFTT

hCD71:HSA [1]: 92 ratio
apical domain:HSA [2]: 191 ratio
RLU [3]: 3.47e+06 RLU
RLU [4]: 7.21e+06 RLU
B16: SEQ ID NO 253 (designed binder, not shown: small tags and cut ends)
chain: B2 chain with W47I, G49H, H85D, T87Y

hCD71:HSA [1]: 33.9 ratio
apical domain:HSA [2]: 292 ratio
RLU [3]: 610000 RLU
RLU [4]: 5.26e+06 RLU
B21: SEQ ID NO 240 (designed binder, not shown: small tags and cut ends)
chain: B2 chain with W47S, G49S, T87K

hCD71:HSA [1]: 31.9 ratio
apical domain:HSA [2]: 241 ratio
RLU [3]: 648000 RLU
RLU [4]: 4.9e+06 RLU
B22: SEQ ID NO 242 (designed binder, not shown: small tags and cut ends)
chain: B2 chain with W47Q, G49L, H85Y, T87A

hCD71:HSA [1]: 21.3 ratio
apical domain:HSA [2]: 1.8 ratio
RLU [3]: 548000 RLU
RLU [4]: 47500 RLU
B24: SEQ ID NO 246 (designed binder, not shown: small tags and cut ends)
chain: B2 chain with W47Q, G49H, H85Y, T87F

hCD71:HSA [1]: 34.4 ratio
apical domain:HSA [2]: 191 ratio
RLU [3]: 1.1e+06 RLU
RLU [4]: 6.11e+06 RLU
B29: SEQ ID NO 230 (designed binder, not shown: small tags and cut ends)
chain: B2 chain with G49L, H85V, T87F
